Laboratory results reported in patent US20070060521A1.

What follows are binders tested against GST fusion protein containing the isolated SH2 domain of STAT3 (assay: phage display panning on the isolated SH2 domain of STAT3, clones sequenced after selection).
Chain of GST fusion protein containing the isolated SH2 domain of STAT3 (P40763 580-670): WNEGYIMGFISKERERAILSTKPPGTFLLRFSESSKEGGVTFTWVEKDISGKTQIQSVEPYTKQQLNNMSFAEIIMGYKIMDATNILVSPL

Frequency (out of 100 clones) [%]	Binder
6	IQSPHFF (peptide, not shown: small tags and cut ends; large carriers) [IQSPHFF (SEQ ID NO:19)]
16	HAIYPRN (peptide, not shown: small tags and cut ends; large carriers) [HAIYPRN (SEQ ID NO:17)]
7	ASTLPKA (peptide, not shown: small tags and cut ends; large carriers) [ASTLPKA (SEQ ID NO:18)]

Each binder was assayed against GST-Stat3 fusion protein (full-length STAT3 fused to bacterial glutathione S-transferase) (assay: phage display panning on GST-Stat3, clones sequenced after selection).
Chain of GST-Stat3 fusion protein (full-length STAT3 fused to bacterial glutathione S-transferase) (P40763 whole entry, the tested form may be a part): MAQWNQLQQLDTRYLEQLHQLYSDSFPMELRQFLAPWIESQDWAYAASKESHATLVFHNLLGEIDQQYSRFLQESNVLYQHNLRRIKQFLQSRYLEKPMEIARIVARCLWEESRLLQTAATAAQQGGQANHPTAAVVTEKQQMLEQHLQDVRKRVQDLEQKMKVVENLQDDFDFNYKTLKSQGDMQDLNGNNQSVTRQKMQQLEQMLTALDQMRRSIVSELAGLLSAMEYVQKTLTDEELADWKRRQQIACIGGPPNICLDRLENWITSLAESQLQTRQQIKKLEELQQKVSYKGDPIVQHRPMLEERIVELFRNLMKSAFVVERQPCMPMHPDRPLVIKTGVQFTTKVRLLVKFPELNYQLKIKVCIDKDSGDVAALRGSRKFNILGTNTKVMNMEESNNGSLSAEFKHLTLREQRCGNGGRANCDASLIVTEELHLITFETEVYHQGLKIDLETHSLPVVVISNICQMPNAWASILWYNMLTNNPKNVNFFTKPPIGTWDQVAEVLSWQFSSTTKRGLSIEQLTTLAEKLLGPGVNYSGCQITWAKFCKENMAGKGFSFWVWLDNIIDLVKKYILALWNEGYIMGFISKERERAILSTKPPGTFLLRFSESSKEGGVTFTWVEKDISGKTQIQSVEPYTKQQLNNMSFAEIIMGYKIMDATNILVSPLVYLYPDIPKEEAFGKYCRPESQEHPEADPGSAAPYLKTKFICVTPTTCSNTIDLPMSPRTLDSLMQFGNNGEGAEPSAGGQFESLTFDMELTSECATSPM

Frequency (out of 100 clones) [%]	Binder
13	QDVHLTQQSRYTGGGS (peptide, not shown: large carriers) [… (SEQ ID NO:13)]
8	FSYPLTRAPLNMGGGS (peptide, not shown: large carriers) [… (SEQ ID NO:16)]
8	YPAPQPLVTKTSGGGS (peptide, not shown: large carriers) [… (SEQ ID NO:15)]
9	SHPWNAQRELSVGGGS (peptide, not shown: large carriers) [… (SEQ ID NO:14)]
